Experimental findings from the nanobody polyreactivity screen of Harvey et al. (2022) are described below.

The nature of this data set: yeast display, Sf9 membrane polyspecificity reagent, FACS + sequencing; frameworks hold sequencing errors. Put shortly:
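Galactose-induced (36–48 hours) yeast carrying a synthetic nanobody display library were exposed to 10% biotinylated, detergent-solubilized Sf9 membrane reagent at 4 °C for 1 hour. FACS followed streptavidin microbead enrichment, using low and high (top ~1%) gates for expression (anti-HA) and reagent binding (streptavidin). Colony PCR, MiSeq 2 × 250 sequencing and CDR-length filtering followed. Labels for polyreactivity reflect the gate of origin.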
In the case of “QVQLVESGRGLVQAGGSLRLSCAASGRIFGRNAMGWYRQAPGKESELVASITSGGGTNYADSVKGRFTISRDNAKNTVYLQMNSLKPDDTAVYDCAKQFYRPGQQSRYDYWGQGMQVTVSS”, the “polyreactivity (PSR sort gate)” value is on record as “low polyreactivity”.
Consider “QVQLVESGGGLVQAGGSLRLSCAASGITFHGYAMGWYRQAPGTERELVAAISDSGSSTYYADSVKGRFTISRDNAKNTVYLQMNSLKPEDTAVYYCAAVSGFYDQYDYWGQGTQVTVSS”, for which the “polyreactivity (PSR sort gate)” value is reported as “low polyreactivity”.
In the case of “QVQLVESGGGLVQAGGSLRLSCAASGSIFRIKAMGWSRQAPGKERELVAAITGRVGSTYYADSVKGRFTISRDNAKNTVYLQMNSLKPEDTAVYYCAARAGSSRYTREYRYDYWGQGTQVTVSS”, the “polyreactivity (PSR sort gate)” value is given as “high polyreactivity”.
Take “QVQLVESGGGLVQAGGSLRLSCAASGSIFPHYAMGWNRQAPGKERELVAAISSGGRTYYADSVKGRFTISRDNAKNTVYLQMNSLKPEDTAVYYCAARRIARKGYGYWGQGTQVTVSS”: the “polyreactivity (PSR sort gate)” value is listed as “high polyreactivity”.
The result for “QVQLQERAAWCRRAGSLRLSFAASGNISDYYFMGWYRQAPGKEREIFAAIAPGSNTFFADSVKGRFTISRDNATNTVYLQMNSLNPEDTAVYYCARQGTIYSYDIVYPRLDYWGQGTQVTVSS” reads “low polyreactivity”; that for “QVQLVESGGGLVQAGGSLRLSCAASGSIFAVYAMGWYRQAPGNERELVAVITRSGGSTYYADSVKGRFTISRDNAKNTVYLQMNSLKPEDTAVYYCAARTGYGYTRYEYWGQGTQVTVSS”, “high polyreactivity”; that for “QVQLEESGGAIVQAAGSLRLSCAASGLIFAWYALGWYRPAPGKERELVATISWNGDRTYYADSVKGRFTISRDNAKNTVYLQMNSLKPEDTAVYYCAARFGSGFNYWGKGTQVTVSS”, “high polyreactivity”.
To “QVHLVESGGGLVQAGGSLRLSCAASGRTFWLNAMGWYRQAPGKERELVATISSSSGSTTYADSVKGRFTISRDNAKNTVYLQINSLKPEDTAVYYCAVYSHKKVRPEYDYWGQGTQVTVSS” belongs “low polyreactivity”; to “QVQLVESGGGLVQAGGSLRLSCAASGFAFSYYAMGWYRQAPGKEREFVASIDWSGGSTYYADSVKGRFTISRDNAKNIVYLQMNSLKPEDTAVYYCAAELDYFPGYDYWGQGTQVTVSS”, “low polyreactivity”; to “QVQLVETGGGLDQAGVSLRLSCAASGSIFGYNDMGWYRQAPGKERELVAAIDCSDDITYYADSVKGRFTISRDNAKNTVYLQMYSLKPEETAVYYCAAVYYYYQYWAHTYYAGMEYWGQGTQVTVSS”, “high polyreactivity”.
For “QEQLQESGSGLVQAGGSLRLSCAASGNIFQDWVRGWYRQAPGKERELVAAISPGAITYDADSVKGRFTISRDNAKNTVYLQTNSLNPEDTAVYYCAAYYIVEYLQGYWGQGTRVTVSS”, the “polyreactivity (PSR sort gate)” value is on record as “low polyreactivity”.
To “QVQLVESGGGLVQAGGSLRLSCAASGSIFVKNAMGWYRQAPGKERELVAVITIRTATTYYADSVKGRFTISRDNAKNTVYLQMNSLKPEDTAVYYCAAAKRQRGYLQREGNYWGQGTQVTVSS” belongs “low polyreactivity”.
Consider “QVQLVESGGGLVQAGGSLRLSCAASGRTFSINAMGWYRQAPGKERELVAAITWSGGSTYYADSVKGRFTISRDNAKNTVYLQMNSLKPEDTAVYYCNAGLGKFPVKGGRRYRLDYWGQGTQVTVSS”, for which the “polyreactivity (PSR sort gate)” value is reported as “low polyreactivity”.
To “QVQLVESGGGLVQAGGSLRLSCAASGGIFKRNTMGWYRQAPGKERELVAGISWTGGRTYYADSVKGRFTISSDNAKNNVYLPPNSLKPEDTAVYYCAAKPLQGVRRVEYWGQGTQVTVSS” belongs “high polyreactivity”; to “QVQLVESGGGLVQAGGSLRLSCAASGLIFQVYDMGWYRQAPGKERELDAAISSGSNTNYADSVKGRFTISRDNAKNTVYLQMNSLIPEDTAVYYCAASWGYGGLTPDMGYWGQGTHVTVSS”, “low polyreactivity”.
As to “QVQLVESGGGLVQAGGSLRLSCAASGRIFDGYVMGWYRQAPGKERELVAAISASGGSTYYADSVKGRFTISRDNAKNTVYLQMNSLKPEDTAVYYCATDALYGYDYWGQGTQVTVSS”, the “polyreactivity (PSR sort gate)” value is “high polyreactivity”.
For the sequence “QVQLVESGGGLVQAGGSLRLSCAASGFTFRYYAMGWYRQAPGQERELVAAITRGAGSTYYADSVKGRFTISRDNAKNTDYFQMNSLKPEDTAVYYCAAEFFQYYVATPFDPSNYWGQGTQVTVSS”, the “polyreactivity (PSR sort gate)” value is listed as “low polyreactivity”.
On to “QVQLVESGGGLVQAGGSLRLSCAASGFIFYRNTMGWYRQAPGKEREFFAAITRSGGITRYADSVKGRFTISRDNAKNTVYLQMNSLKPEDTAVYYCAARRWIADPGRIMDYWGQGTQVTVSS”, for which the “polyreactivity (PSR sort gate)” value is on record as “high polyreactivity”.
As to “QVQLVESGGGLVQAGGSLRLSCAASGSIFRWYAMGWYRQAPGKERELVAGISSTGGSTYYADSVKGRFTISRDNAKNTVYLQMNSLKPEDTAVYYCAVVSYPSAFRRYNYWGQGTQVTVSS”, the “polyreactivity (PSR sort gate)” value is “high polyreactivity”.
In the case of “QVQLVESGGGLVQAGGSLRLSCAASGLTFDSNVMGWYRQAPGKERELVAAITSSGRTYYADSVKGRFTISRDNEKNTVYLQMNSLKPEDTAVYYCAARNLAYTRKGYYYWGQGTQVTVSS”, the “polyreactivity (PSR sort gate)” value is reported as “high polyreactivity”.
For the sequence “QVQLVESGGGLVQAGGSLRLSCAASGRIFYLYAMGWYRQAPGKERELVAAISVSGARTYYADSVKGRFTISRDNAKNTVYLHMNSLKPEDTAVYYCATVGPYRSRRAGDYWGQGTQVTVSS”, the “polyreactivity (PSR sort gate)” value is reported as “high polyreactivity”.
For the sequence “QVQLVESGGGLVQAGGSLRLSCAASGRTFGPYVMGGDRQAPGKERELVAGITSGGSTNYADSVKGRFTISRDNAKNTVYRQMNSLKPEDTAVYYCNADYLIYFGLYEYWGHGTQVTVSS”, the “polyreactivity (PSR sort gate)” value is on record as “low polyreactivity”.
With “QVQLVESVGGLVQAGGSHRLSCAASGLTFEWYTMGWYRQAPGKERELVAVITVSGSSTYYADSVKGRFTISRDNAKNTVYLQMNSLKPEDTAVYYCNADWSFYSYTLYDYWGQGTQVTVSS”, the “polyreactivity (PSR sort gate)” value is on record as “low polyreactivity”.
To “QVHLVESGGGLVQAGGSLRLSCAASGSILAGYAMGWYRQAPGKEWELVAAISSGGRTYYADSVKGRFTISRDNAKNTVYLQMNSLKPEDTAVYYSAAGKYDGSRRMYYWGQGTQVTVSS” belongs “high polyreactivity”.
The result for “QVQLVESGGGLVQAGGSLRLSCAASGFIFTDYAMGWYIQAPGKERELVAGISGSGGRTYYADSVKGRFTISRDNAKNTVYLQMNSLKPEDTAVYYCAARGVPWLWYFRGMYWGQGTQVTVSS” reads “high polyreactivity”; that for “QVQLVESGGGLVQAGGSLRLSCAASGSIFASNAMGWYRQAPGKQWELVAAINSGTRTKYADSVKGRFTISRDNAKNTVYLQMNSRKPEDTAVYYCAARFKGERGPAHYYWGQGTQVTVSS”, “high polyreactivity”.
Take “QVQLVESGGGLVQAGGSLRLSCAASGSIFRFYAMGWYIQAPGKERELVAAIRFSGGNTYYADSVKGRFTISCDNAKNTVYLQMNSLKPEDTAVYYCAKYRRVKPKRYDYDYWGQGTQVTVSS”: the “polyreactivity (PSR sort gate)” value is “high polyreactivity”.
With “QVQLVESGGRLVQAGGSLRLSCAASGSIFLKYAMRWYRQAPGKERELVAAISSAGRTYYADSVKGRFTISRDNAKKTVYLQMNSLKPEETAVSYCAARYPYDWRHDYWGQGTQVTVSS”, the “polyreactivity (PSR sort gate)” value is reported as “low polyreactivity”.
To “QVQLVESGGGLVQAGGSLRLSCAASGSTFWRYAMGWYRQAPGKERELVAAITRRGSSTYYADSVKGRFTISRDNAKNTVVLQMNSLKPEDTAVYYCAAPGYVRTGVTYGGYYWGQGTQVTVSS” belongs “high polyreactivity”.
Turning to “QVQLVESGGGLVQAGGSLRLSCAASGRIIIGYVMGWYRQAPGKERELVATISYSGGSTYADSVKGRFTISRDNAKNTVYLQMNSLKPEDTAVYYCAARPYYRYYRYPYGYWGQGTQVTVSS”, the “polyreactivity (PSR sort gate)” value is recorded as “high polyreactivity”.
The result for “QVQLVESGGGLVQAGGSLRLSCAASGITFYIYAMGWYRQAPGKERELVAAITWGGDGSTRYADSVKGRFTISRDNAKNTVYLQMNSLKPEDTAVYYCAGGSTFVLFDDMDYWGQGTQVTVSS” reads “low polyreactivity”.
With “QVQLVESGGGLVQAGGSLRLSCAASGRIFGWYAMGWYRQAPGKERELVAAISSAGRTYYADSVKGRFTISRDNAKNTDYLQMNSLKPEDTAVYYCAAEIARSFYRYTYYYWGQGTQVTVSS”, the “polyreactivity (PSR sort gate)” value is listed as “high polyreactivity”.
In the case of “QVQLVESGGGLVQAGGSLRLSCPASGRIFVLGWYRQAPGKERELVAAINDSGDITYYADSVKGRFSISRDNAKYTVYLQMNSLKPEDTAVYYCAASAAYYGFYKSVTYDYWGQGSQVTVSS”, the “polyreactivity (PSR sort gate)” value is recorded as “low polyreactivity”.
The result for “QVQLVESGGGLVQAGGSLRLSCAASGSNFTPYAMGWYRQAPGKERELVAAISGSGGSTRYADSVKARYTISRDNAKNTVYLQMNSLKPEDTAVYYCAADRYTYIWYHIYDYWGQGTQVTVSS” reads “low polyreactivity”; that for “QVQLVESGAGLVQAGGSLRLSCAASGSIFGSYAMGRDRQAPGKERELVAGITYRGSSTYYAESVKGRFTISRDNAKNTVYLQMNSLKPEATAVYYCAADPVFDEYDYWGQGTQVTVSS”, “low polyreactivity”; that for “QVQLVESGGGLVQAGGSLRLSCAASGSIFVRNVMGWYRQAPGKERELVAGISWNGGSTFNADSVKGRFTISRDNAKNTVYLQMNSLKQEDTAVYYCAARGRHSGYYSFPYYYWGQGTQVTVSS”, “low polyreactivity”.
The result for “QVQLVESGGGLVQAGGSLRLSCAASGSTFVLNAMGWYRQAPGKERELVAAINLDSGNTNYADSVKGRFTISRDNAKNTVYLQMNSLKPEDTAVYYCNTDVKFGGTAYDYWGQGTQVTVSS” reads “low polyreactivity”; that for “QVQLVESGGGLVQAGGSLRLGCAASGSTLYSYAMGWYRQAPGKERELVASISSGASTYYADSVKGRFTISRDNAKNTVYLQMNSLKPEDTAVYYCNADAGSYHTGWVTPWGSDEYDYWGQGTQVTVSS”, “low polyreactivity”; that for “QVQLVESGGGLVQAGGSLRLSCAASGRTCGYYAMGWYRQAPGKEREFVAVITWSGDSTYYADSVKGRFTISRDNAKNTVYLQMNSLKPEDTAVYNGNADSGNAGTAYDDYDYSGQGTQVTVSS”, “low polyreactivity”.
Regarding “QVQLVESGGGLVQSGGSLRLSCAASGYIIPRYAMGWYIHAPGKERELVAGITTGVRTNYADSVKGRFTISRDNAKNSVYLQMNSLKPGDTAVYYCNARYFRYRYNRYDYWGQGTQVTVSS”, the “polyreactivity (PSR sort gate)” value is listed as “high polyreactivity”.
